Target: the molecule itself
Experiment: cryo-EM structure; single-particle cryo-EM map at 4.1 Å with tetrahedral symmetry imposed, refined jointly with MAS NMR and solution-NMR restraints (XPLOR-NIH, full dodecamer)

B1: aminopeptidase TET2 from Pyrococcus horikoshii (enzyme)
chain: MEVRNMVDYELLKKVVEAPGVSGYEFLGIRDVVIEEIKDYVDEVKVDKLGNVIAHKKGEGPKVMIAAHMDQIGLMVTHIEKNGFLRVAPIGGVDPKTLIAQRFKVWIDKGKFIYGVGASVPPHIQKPEDRKKAPDWDQIFIDIGAESKEEAEDMGVKIGTVITWDGRLERLGKHRFVSIAFDDRIAVYTILEVAKQLKDAKADVYFVATVQEEVGLRGARTSAFGIEPDYGFAIDVTIAADIPGTPEHKQVTHLGKGTAIKIMDRSVICHPTIVRWLEELAKKHEIPYQLEILLGGGTDAGAIHLTKAGVPTGALSVPARYIHSNTEVVDERDVDATVELMTKALENIHELKI
notes: TET2 aminopeptidase, Pyrococcus horikoshii, UniProt O59196; 353 residues (39 kDa) per subunit as printed; Dodecamer of 12 x 39 kDa (468 kDa), with two zinc ions in each active site; Samples carried various isotope labels (2H, 13C, 15N, methyl labelling); the cryo-EM sample was u-[2H,13C,15N]-labelled; No tag is mentioned; source: E. coli BL21(DE3), purified (heating to 85 °C, Resource Q, size …)
In the case of B1, the “stoichiometry N” value is reported as 12.
